The values that follow come from patent publication US20250382334.

The target in series [1] is v2.3 BE-VLP MMLV gag-ABE8e fusion protein (cleavable linker […]).
Series [2] has as its target v2.4 BE-VLP MMLV gag-ABE8e fusion protein (cleavable linker […]).
Series [3] addresses v2.2 BE-VLP MMLV gag-ABE8e fusion protein (cleavable linker VQALVLTQ).
Series [4] addresses v2.1 BE-VLP MMLV gag-ABE8e fusion protein (cleavable linker …).

B1: Moloney murine leukemia virus (MMLV) protease, supplied as wild-type MMLV gag-pro-pol polyprotein (protein)
chain: TLDDQGGQGQEPPPEPRITLKVGGQPVTFLVDTGAQHSVLTQNPGPLSDKSAWVQGATGGKRYRWTTDRKVHLATGKVTHSFLHVPDCPYPLLGRDLLTKLKAQIHFEGSGAQVMGPMGQPLQVL
For B1, the “fraction of cleaved ABE8e versus full-length gag-ABE8e present in purified eVLPs (western blot)” value in series [1] is “the v2.4 linker is cleaved more efficiently than the v2.1 and v2.2 linkers, but less efficiently than the v2.3 linker”; in series [2], “the v2.4 linker is cleaved more efficiently than the v2.1 and v2.2 linkers, but less efficiently than the v2.3 linker”; in series [3], “the v2.4 linker is cleaved more efficiently than the v2.1 and v2.2 linkers, but less efficiently than the v2.3 linker”; in series [4], “the v2.4 linker is cleaved more efficiently than the v2.1 and v2.2 linkers, but less efficiently than the v2.3 linker”.
